Data as given in patent US20240101707A1, “A METHOD OF PREVENTING, ALLEVIATING OR TREATING A TUMOR” (JIANGSU ALPHAMAB BIOPHARMACEUTICALS CO., LTD., priority 2021, published 2024).

Molecular target: T1, Human PD-L1 (WT) (human, UniProt Q9NZQ7 19-127, limits assumed)
T1 construct: also called human PD-L1 N-terminal IgV domain
Assay: affinity measurement, method not stated

T1 sequence (Q9NZQ7 19-127 limits assumed): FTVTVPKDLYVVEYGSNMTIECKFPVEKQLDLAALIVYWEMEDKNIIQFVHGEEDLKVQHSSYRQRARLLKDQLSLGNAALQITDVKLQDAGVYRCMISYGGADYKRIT

B1: PD-L1 ISVD-9 (VHH)
VHH: QVQLVESGGGLVQPGGSLRLSCAASGKMSSRRCMAWFRQAPGKERERVAKLLTTSGSTYLADSVKGRFTISRDNSKNTVYLQMNSLRAEDTAVYYCAADSFEDPTCTLVTSSGAFQYWGQGTLVTVSS
notes: also called ISVD specific for PD-L1
- Kd: 5.92 nM
